Patent US20100081612A1 (GENERAL HOSPITAL, published 2010)
Where no end group is shown, it is not given here.

T1: wild-type human PTHR (human, UniProt Q03431 27-593)
T1 construct: whole, on cells; also called PTHR-WT; intact PTHR
T1 sequence (looked up): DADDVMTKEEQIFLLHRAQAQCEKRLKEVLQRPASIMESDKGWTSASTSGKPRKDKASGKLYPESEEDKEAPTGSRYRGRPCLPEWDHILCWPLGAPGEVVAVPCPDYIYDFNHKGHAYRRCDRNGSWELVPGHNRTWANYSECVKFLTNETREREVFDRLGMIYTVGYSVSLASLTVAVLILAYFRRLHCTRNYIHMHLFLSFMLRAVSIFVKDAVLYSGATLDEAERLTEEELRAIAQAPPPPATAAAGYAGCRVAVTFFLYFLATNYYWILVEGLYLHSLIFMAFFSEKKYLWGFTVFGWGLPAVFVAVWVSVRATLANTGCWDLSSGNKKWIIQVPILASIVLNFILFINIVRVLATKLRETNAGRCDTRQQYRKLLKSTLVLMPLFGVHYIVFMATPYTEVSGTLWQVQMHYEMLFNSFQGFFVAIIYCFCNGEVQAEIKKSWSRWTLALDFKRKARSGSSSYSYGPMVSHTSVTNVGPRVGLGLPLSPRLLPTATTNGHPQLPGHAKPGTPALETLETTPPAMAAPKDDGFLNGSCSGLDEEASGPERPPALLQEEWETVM

B1: PTH(1-31)NH2 Val^21→Ala (peptide)
peptide: SVSEIQLMHNLGKHLNSMERAEWLRKKLQDV-NH2
B2: PTH(1-31)NH2 Lys^27→Ala (peptide)
peptide: SVSEIQLMHNLGKHLNSMERVEWLRKALQDV-NH2
B3: PTH(1-31)NH2 Met^18→Ala (peptide)
peptide: SVSEIQLMHNLGKHLNSAERVEWLRKKLQDV-NH2
B4: PTH(1-31)NH2 Leu^28→Ala (peptide)
peptide: SVSEIQLMHNLGKHLNSMERVEWLRKKAQDV-NH2
B5: PTH(1-31)NH2 Arg^25→Ala (peptide)
peptide: SVSEIQLMHNLGKHLNSMERVEWLAKKLQDV-NH2
B6: PTH(1-31)NH2 Asp^30→Ala (peptide)
peptide: SVSEIQLMHNLGKHLNSMERVEWLRKKLQAV-NH2
B7: PTH(1-31)NH2 Leu^24→Ala (peptide)
peptide: SVSEIQLMHNLGKHLNSMERVEWARKKLQDV-NH2
B8: PTH(1-31)NH2 Val^31→Ala (peptide)
peptide: SVSEIQLMHNLGKHLNSMERVEWLRKKLQDA-NH2
B9: PTH(1-31)NH2 Lys^26→Ala (peptide)
peptide: SVSEIQLMHNLGKHLNSMERVEWLRAKLQDV-NH2
B10: PTH(1-31)NH2 Glu^22→Ala (peptide)
peptide: SVSEIQLMHNLGKHLNSMERVAWLRKKLQDV-NH2

Target: PTHR-delNt (human) (UniProt Q03431)
Assay: competition binding, COS-7 membranes, 125I-[Aib1,3,M]PTH(1-15) tracer

IC50 | fold reduction in binding affinity vs PTH(1-31)NH2 | Binder
5690 nM |  | B1
7290 nM |  | B2
8800 nM |  | B3
3460 nM |  | B4
7180 nM |  | B5
1540 nM |  | B6
8760 nM | 2 fold | B7
4910 nM |  | B8
6210 nM |  | B9
5860 nM |  | B10

Target: T1, wild-type human PTHR
Assay: competition binding, HKRK-B7 cells, 125I-PTH(1-34) tracer

fold change in binding affinity vs PTH(1-31)NH2 | fold reduction in binding affinity vs PTH(1-31)NH2 | fold enhancement in binding affinity vs PTH(1-31)NH2 | Binder
≤ 2 fold |  |  | B3
≤ 2 fold |  |  | B6
 | 12 fold |  | B7
≤ 2 fold |  |  | B9
 |  | ≤ 2 fold | B10

Target: T1, wild-type human PTHR
Assay: cell-based or functional assay

inositol phosphate (IP) production, peptide at 1×10^-6 M | Binder
4 fold | B1
4 fold | B2
4 fold | B3
4 fold | B4
4 fold | B5
4 fold | B6
4 fold | B7
4 fold | B8
4 fold | B9
4 fold | B10

Target: T1, wild-type human PTHR
Assay: competition binding, HKRK-B7 cells, 125I-PTH(1-34) tracer
Remark: another data set of the same source
Procedure: Receptor binding—Binding to the wild-type human PTHR in intact HKRK-B7 cells and ROS 17/2.8 cells was assessed using ¹²⁵I-PTH(1-34) as a tracer radioligand, as described (Shimizu, M., (2001) Endocrinology 142:3068-3074). In brief, the cells in 24-well plates (about 500,000 cells per well) were incubated in binding buffer containing radioligand (about 100,000 cpm per well) with or without unlabeled peptide ligand (3×10⁻⁹ to 1×10⁻⁵ M) for four hours at 15° C. The binding mixture was then removed by aspiration, the cells were rinsed three times with binding buffer, lysed in 1 M NaOH, and the entire lysate was counted for gamma-irradiation in a gamma counter. Binding to PTHR-delNt in COS-7 cell membranes was assessed in 96-well, vacuum filtration plates (Multiscreen-Durapore HV, […], Millipore Corp., Millford, Mass.) using ¹²⁵I-[Aib^{1,3},M]PTH(1-15)NH₂ as a tracer radioligand, as described (Dean, T., (2006) Mol Endocrinol 20:931-942). In brief, cell membranes (20 μg/well) were incubated in membrane binding buffer containing radioligand (30,000 cpm/well) with or without unlabeled peptide ligand (3×10⁻⁹ to 1×10⁻⁵ M) for 90 minutes at 21° C. The plates were then subject to rapid vacuum filtration, the filters were washed once with buffer, detached from the plate and counted for gamma-irradiation in a gamma counter. Non-specific binding was defined as the binding observed in the presence of 1×10⁻⁶ M PTH(1-31)NH₂ for HKRK-B7 and ROS 17/2.8 cells, and 1×10⁻⁶ M [Aib^{1,3},M]PTH(1-15)NH₂ for PTHR-delNt. Specifically bound radioactivity was calculated as a percentage of the radioactivity specifically bound in the absence of competing ligand.
Alanine-Scan of the PTH(17-31) domain—Each residue in the (17-31) region of PTH(1-31)NH₂ was individually replaced with alanine and the effects of the substitutions on binding to the intact human PTHR stably expressed in HKRK-B7 cells was assessed. Competition binding studies were performed using whole cells and ¹²⁵I-PTH(1-34) (¹²⁵I-[Nle^{8,21},Tyr³⁴]ratPTH(1-34)NH₂) as a tracer radioligand.

IC50 | Binder
200 nM | B1
217 nM | B2
92 nM | B3
290 nM | B4
281 nM | B5
63 nM | B6
807 nM | B7
176 nM | B8
125 nM | B9
36 nM | B10
